Our source for the percent of injection sites with correct anterior turns of post-crossing commissural axons (open-book explant, collagen gel) values is patent US20050049195A1.

The assay concerns the target Wnt proteins. The experiment in a line: cell-based or functional assay.

For “Mouse sFRP2 (secreted Frizzled-related protein 2), Myc epitope tagged (from UniProt P97299 25-295)”, the percent of injection sites with correct anterior turns of post-crossing commissural axons (open-book explant, collagen gel) worked out at 25%.
“Mouse sFRP3 (secreted Frizzled-related protein 3), Myc epitope tagged (from UniProt P97401 33-323)” had a percent of injection sites with correct anterior turns of post-crossing commissural axons (open-book explant, collagen gel) of 25%.
As to “Mouse sFRP1 (secreted Frizzled-related protein 1) (from UniProt Q8C4U3 32-314)”, the percent of injection sites with correct anterior turns of post-crossing commissural axons (open-book explant, collagen gel) is 11%.
